Test results reported in patent publication US20130216545A1, “Early Diagnosis and Novel Treatment of Cancer” (priority 2012, published 2013).
Each block holds one molecule with its values, some of them ahead of it.

How the values were obtained:
Megi [1] = target: T1, Megi (Homo sapiens, UniProt O43909); experiment: Cy3 immunofluorescent staining of Megi in human pancreatic adenocarcinoma cells; format: cell-based; conditions: 167 nM Reg peptide added to human pancreatic adenocarcinoma cells; FIG. 6b vs 6a
T1 construct: Megi protein is expressed in human pancreatic cancer cells; endogenous in cells
T1 sequence (O43909 1-919): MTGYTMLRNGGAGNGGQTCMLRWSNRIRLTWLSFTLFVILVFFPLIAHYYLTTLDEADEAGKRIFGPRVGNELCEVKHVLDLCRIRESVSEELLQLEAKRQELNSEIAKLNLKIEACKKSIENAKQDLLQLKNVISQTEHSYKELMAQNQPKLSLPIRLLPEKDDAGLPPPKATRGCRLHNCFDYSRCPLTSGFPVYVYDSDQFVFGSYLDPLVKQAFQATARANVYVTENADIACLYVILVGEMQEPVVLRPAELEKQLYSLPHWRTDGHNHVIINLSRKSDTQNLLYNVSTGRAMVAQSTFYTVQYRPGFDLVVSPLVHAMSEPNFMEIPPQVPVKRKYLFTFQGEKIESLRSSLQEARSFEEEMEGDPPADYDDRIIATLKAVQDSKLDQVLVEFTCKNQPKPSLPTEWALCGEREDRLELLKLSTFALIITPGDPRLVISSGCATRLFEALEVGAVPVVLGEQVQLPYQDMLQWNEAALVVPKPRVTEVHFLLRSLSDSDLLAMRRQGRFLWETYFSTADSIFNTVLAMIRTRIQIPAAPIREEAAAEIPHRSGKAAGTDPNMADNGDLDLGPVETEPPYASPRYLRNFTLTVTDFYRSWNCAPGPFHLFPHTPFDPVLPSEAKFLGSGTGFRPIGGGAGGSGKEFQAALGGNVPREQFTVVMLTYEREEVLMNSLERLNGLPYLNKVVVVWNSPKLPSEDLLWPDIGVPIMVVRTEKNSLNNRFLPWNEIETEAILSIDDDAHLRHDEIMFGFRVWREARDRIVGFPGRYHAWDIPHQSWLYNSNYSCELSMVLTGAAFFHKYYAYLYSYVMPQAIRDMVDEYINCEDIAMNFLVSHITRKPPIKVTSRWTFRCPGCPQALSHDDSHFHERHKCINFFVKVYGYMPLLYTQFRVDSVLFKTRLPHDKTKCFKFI
Description: To determine the presence of Megi via immunofluorescence, a continuous tumor-cell line from a human carcinoma of the exocrine pancreas were cultured in Dulbecco's Modified Eagle Medium containing 4.5 g/L glucose, 1:5 g/L sodium bicarbonate, 4 mM L-glutamine, and 10% fetal bovine serum. Cells were seeded at 50% confluence in standard growth medium. Twenty-four hours after seeding, cells were differentiated in serum free medium. Cells were mounted on cover slips and fixed in 4% paraformaldehyde and permeabilized with 0:2% Triton X-100. After being washed and blocked, cells were incubated with rabbit polyclonal anti-Megi antibody and a CY3-conjugated goat-anti-rabbit labeled fluorescent antibody. Antibodies were used at a 1:200 dilution. Coverslips were mounted and staining was analyzed on a Zeiss Axiovert 220M microscope powered by Axiovision 4.0 software with Z-stack acquisition, 3D-deconvolution, and 4D rendering modules.
Utilizing Cy3 immunofluorescent staining of Megi in human pancreatic adenocarcinoma cells in standard medium, there is immunofluorescent staining of Megi (FIG. 6a), which is well-defined at the cell borders indicating surface expression of Megi on the plasma membrane with visibly undetectable levels of Megi in the nucleus. […]

Megi [2] = target: T1, Megi; experiment: Western blot analysis of Megi in cytosolic and nuclear fractions of adenocarcinoma cells; format: cell-based; conditions: Reg peptide 167 nM; 30 minutes; vs cells not treated with Reg peptide; FIG. 7g vs 7e
Description: The Western blot analysis of cytosolic and nuclear fractions isolated at the indicated time points with Reg peptide accelerating time of Megi translocation from the cell surface membrane to nucleus. Adenocarcinoma cells were seeded in T75 flasks in Dulbecco's Modified Eagle media containing 10% fetal bovine serum. The cells were incubated at […], 5% CO2 for 24 hours and then treated with Reg peptide at the final concentration of 167 nM. This treatment was performed once a day for four days. On the fifth day the cells were broken to obtain the cell lysates. In these cell extracts the total protein levels were determined, and 50 micrograms of total protein, were used to perform the western blot analysis. The samples containing 50 micrograms of proteins were diluted in loading buffer and loaded into each well of the gel. For gels run under reducing conditions, buffer also contained 5% of the reducing agent beta-mercaptoethanol
Analyses were performed from cytoplasmic extracts were obtained in 10 mM HEPES (pH 8.0), 1 mM EDTA, 1.5 mM MgCl2, 10 mM KCl, 0.5 mM DTT, 200 mM sucrose and 0.5% Nonidet P-40. Nuclear extracts were obtained in 20 mM HEPES (pH 7.9), 0.75 mM MgCl2, 210 mM NaCl, 50 mM KCl, 1 mM EDTA, 10% glycerol, and 0.5 mM of dithiothreitol. […] Secondary signals were developed with chemiluminescence substrate and analyzed by autoradiography.

Megi [3] = target: T1, Megi; experiment: Immunofluorescent nuclear analyses of Megi translocation (Cy3 with DAPI overlay); format: cell-based; conditions: cells grown in serum-free medium with 150 μM Reg peptide; FIG. 8c, 8f
Source text: Immunofluorescent analyses of Megi are shown in the upper panels (FIG. 8a, FIG. 8b and FIG. 8c) indicated by the Cy3 immunofluorescent staining of Megi. […] The arrows in FIG. 8a and FIG. 8d delineate the cell borders, whereas the nuclei are shown in light grey contrast in FIG. 8d.
The middle images (FIG. 8b and FIG. 8e) are cells grown in SFM. Megi is localized in the cytoplasm, as indicated by cytoplasmic Cy3 staining. The arrows in FIG. 8b and FIG. 8e show the lack of staining in the position of the nuclei. […] In the lower image (FIG. 80, there is an overlap of Megi-Cy3 staining and nuclear DAPI staining that corroborates that there is nuclear localization of Megi indicated by the arrows in FIG. 8f. In the lower image (FIG. 8f) of cells grown in SFM and Reg peptide, the arrows indicate the position of the nuclei, which now stains for Megi. Scale bar=20 μm in all images.
Immunofluorescent analyses are shown in the upper, panels (FIG. 8a, FIG. 8b and FIG. 8c) indicated by the Cy3 immunofluorescent staining of Megi. […]

rabbits = experiment: Enzyme ImmunoAssay titers of polyclonal antibodies raised in rabbits to a Megi peptide; format: in vivo, rabbit; conditions: for 50% titer: test bleed 31 days after day 0 and day 21 boosts, KLH-conjugated peptide, unconjugated screening antigen
Description: Data sets were taken from the bleed after the day 0 and day 21 boosts. The animals were injected with a peptide of SEQ ID NO: 4 and were conjugated to keyhole limpet hemocyanin (KLH). The screening antigen is not conjugated to KLH so that the response solely to the peptide and not to KLH can be identified. The 50% titer is a dilution value where the signal is half-way between the peak and the baseline, so the higher the dilution value (titer), the greater the response to the antigen. The positive control is an internal control that was generated from ovalbumin antibodies in rabbit. At a dilution of 1:759,000, the absorbance fell within a range of 0.45 to 0.9. In the case of the response to SEQ ID NO: 4, there was a high response. The data shown in FIG. 9 from the prebleed sample obtained on Dec. 8, 2010 was <100 (negative) for both rabbits, CD 153 and CD 154.

Megi receptor = conditions: rat hippocampus; effect abolished by downregulating Megi by shRNA; cited from earlier work

nuclear levels of Megi (Megi nuclear translocation) (Megi [2]): higher nuclear levels of Megi
subcellular localization of Megi (Megi [3]): translocation of Megi into the nucleus
Molecule: Reg peptide: common Reg peptide sequence (SEQ ID NO: 10) selected from Reg1α, Reg1β, Reg3α and RegIV, synthesized by Bachem (IGLHDPTQGTEPNG)
cellular staining of Megi (Megi [1]): greater expression of Megi inside of the cell

50% titer (rabbits; rabbit CD 153): 36,000
50% titer (rabbits; rabbit CD 154): 125,000
response to the antigen (rabbits; rabbits immunised with KLH-conjugated peptide): high response
Molecule: SEQ ID NO: 4: 20 amino acid Megi peptide (amino acids 17-36) used as immunogen to raise polyclonal antibodies in rabbits (CKKSIENAKQDLLQLKNVIS)

B1: recombinant Reg1α: recombinant regenerating islet-derived 1 alpha protein used by Van Ba on rat hippocampus (protein)
chain: QEAQTELPQARISCPEGTNAYRSYCYYFNEDRETWVDADLYCQNMNSGNLVSVLTQAEGAFVASLIKESGTDDFNVWIGLHDPKKNRRWHWSSGSLVSYKSWGIGAPSSVNPGYCVSLTSSTGFQKWKDVPCEDKFSFVCKFKN
neurite outgrowth (Megi receptor): increased neurite outgrowth
